# T1: human FcγRIIa (R131) extracellular domain protein (human, UniProt P12318 34-217)
# T1 construct: extracellular domain; also called hFcγRIIa (R131); FcγRIIa 131R
# T1 sequence (looked up): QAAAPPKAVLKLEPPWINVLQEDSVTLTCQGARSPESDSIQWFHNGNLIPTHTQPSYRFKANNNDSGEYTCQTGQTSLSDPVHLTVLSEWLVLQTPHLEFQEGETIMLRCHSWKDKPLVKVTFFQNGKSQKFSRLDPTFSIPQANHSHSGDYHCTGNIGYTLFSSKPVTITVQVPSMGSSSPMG
# T2: human FcγRIIa (H131) extracellular domain protein (human, UniProt P12318 34-217)
# T2 construct: extracellular domain; also called hFcγRIIa (H131); FcγRIIa 131H
# T2 sequence (looked up): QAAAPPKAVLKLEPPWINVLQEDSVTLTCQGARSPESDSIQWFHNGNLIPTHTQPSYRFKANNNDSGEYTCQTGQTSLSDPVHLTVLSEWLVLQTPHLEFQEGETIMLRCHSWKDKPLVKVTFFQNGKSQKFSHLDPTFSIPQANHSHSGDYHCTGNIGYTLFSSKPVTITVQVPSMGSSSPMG
# Tests used:
# [1] = target: T1, human FcγRIIa (R131) extracellular …; test: SPR (Biacore), N = 1
# [2] = target: T3, human FcγRIIIa (F158) extracellular domain protein (human, UniProt P08637 17-208); test: SPR (Biacore), N = 1
# T3 construct: extracellular domain; also called hFcγRIIIa (F158); FcγRIIIa158F
# cynomolgus α4β7 integrin [3] = target: T4, cynomolgus α4β7 integrin (cynomolgus monkey); test: FACS, cyno CD4+ naïve
# T4 construct: whole, on cells; On CHOK1-cα4β7 cells or cynomolgus blood lymphocytes; also called cα4β7; cyno α4β7
# cynomolgus α4β7 integrin [4] = target: T4, cynomolgus α4β7 integrin; test: FACS, cyno CD4+ memory
# cynomolgus α4β7 integrin [5] = target: T4, cynomolgus α4β7 integrin; test: FACS, cyno CD8+ memory
# cynomolgus α4β7 integrin [6] = target: T4, cynomolgus α4β7 integrin; test: FACS, cyno CD4+ memory; remark: listed apart in the source
# cynomolgus α4β7 integrin [7] = target: T4, cynomolgus α4β7 integrin; test: FACS, cynomolgus CD4+ T cells
# cynomolgus α4β7 integrin [8] = target: T4, cynomolgus α4β7 integrin; test: binding, cynomolgus lymphocytes, summary table
# [9] = target: T5, human FcγRI extracellular domain protein (human, UniProt P12314 16-292); test: SPR (Biacore T200), His-tagged FcγR captured by anti-His, antibody injected
# T5 construct: extracellular domain; also called hFcγRI
# [10] = target: T2, human FcγRIIa (H131) extracellular …; test: as above
# [11] = target: T3, human FcγRIIIa (F158) extracellular …; test: as above
# [12] = target: T6, human FcγRIIIa (V158) extracellular domain protein (human, UniProt P08637 17-208); test: as above
# T6 construct: extracellular domain; also called hFcγRIIIa (V158); FcγRIIIa158V
# T6 sequence (P08637 17-208 F176V limits assumed): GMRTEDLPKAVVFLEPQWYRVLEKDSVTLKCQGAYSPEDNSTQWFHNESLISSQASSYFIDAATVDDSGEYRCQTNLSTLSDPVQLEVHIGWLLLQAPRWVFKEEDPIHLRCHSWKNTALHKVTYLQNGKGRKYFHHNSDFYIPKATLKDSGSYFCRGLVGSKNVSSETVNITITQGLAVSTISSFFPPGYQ
# T3 sequence (P08637 17-208): as the sequence (P08637 17-208 F176V limits assumed) above, with V160F counted along it
# T5 sequence (P12314 16-292): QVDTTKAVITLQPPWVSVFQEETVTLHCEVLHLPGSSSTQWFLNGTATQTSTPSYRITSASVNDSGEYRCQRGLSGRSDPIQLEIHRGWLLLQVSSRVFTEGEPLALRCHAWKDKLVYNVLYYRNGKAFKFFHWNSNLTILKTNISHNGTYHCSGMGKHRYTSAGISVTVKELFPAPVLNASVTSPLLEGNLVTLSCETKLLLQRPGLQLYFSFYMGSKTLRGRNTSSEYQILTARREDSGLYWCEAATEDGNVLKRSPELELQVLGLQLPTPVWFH
binder,measurement,setting,value
"Ab-h1.9d-WT (antibody, human IgG1, kappa, IgG1/kappa with D356E and L358M (EU); also called Anti-human α4β7 (AC-166667) hu IgG1/k WT mAb) heavy: not shown light: DIQMTQSPSSLSASVGDRVTITCHASQDISDNIGWLQQKPGKSFKLLIYHGTNLEDGVPSRFSGSGSGTDYTLTISSLQPEDFATYYCVQYAQFPWTFGGGTKVEIKRTVAAPSVFIFPPSDEQLKSGTASVVCLLNNFYPREAKVQWKVDNALQSGNSQESVTEQDSKDSTYSLSSTLTLSKADYEKHKVYACEVTHQGLSSPVTKSFNRGEC",Kd,[1],5200 nM
same,Kd,[2],3100 nM
same,EC50,cynomolgus α4β7 integrin [3],0.045 nM
same,EC50,cynomolgus α4β7 integrin [4],0.01 nM
same,EC50,cynomolgus α4β7 integrin [5],0.036 nM
same,EC50,cynomolgus α4β7 integrin [6],0.01 nM
same,EC50,cynomolgus α4β7 integrin [7],0.03 nM
same,EC50,cynomolgus α4β7 integrin [8],0.062 nM
same,Kd,[9],16 nM
same,Kd,[10],5600 nM
same,Kd,[11],4600 nM
same,Kd,[12],480 nM

# Reference: patent publication US20260062488A1 (AbbVie / Abbott, published 2026)
